Where two headings read alike, the source gives them in different places.

Assay [1] deals with T1, EGFR and PD-L1 on EGFR/PD-L1 double positive A431 cells (UniProt P00533 25-1210; Q9NZQ7 19-290).
T1 construct: whole, on cells; Two separate cell-surface proteins, not a complex; also called A431 (EGFR+/PD-L1+)
In words: flow cytometry; Jurkat cells with antibody mixed with Calcein AM-stained A431 cells; anti-human Fc PE detection; Q2 = PE-positive Calcein-stained A431 events; Neg Ctrl Q2 0.13.

Assay [2] addresses T1, EGFR and PD-L1 on EGFR/PD-L1 double …. The experiment in a line: flow cytometry on A431 cells.
Assay [3] concerns the target T2, His6-EGFR-TS (soluble, monomeric EGFR) (UniProt P00533 25-645).
T2 construct: not shown: TwinStrepII tag (TS)
In words: BLI, antibody on AHC biosensors.

The target of assay [4] is T3, His6-PD-L1-TS (soluble, monomeric PD-L1) (UniProt Q9NZQ7 19-238).
T3 construct: not shown: TwinStrepII tag (TS)
The experiment in a line: BLI, antibody on AHC biosensors.

For assay [5], the target named is T4, soluble IL-6R (sIL-6R-TS) (UniProt P08887 20-358).
T4 construct: not shown: TwinStrepII tag (TS)
T4 sequence (looked up): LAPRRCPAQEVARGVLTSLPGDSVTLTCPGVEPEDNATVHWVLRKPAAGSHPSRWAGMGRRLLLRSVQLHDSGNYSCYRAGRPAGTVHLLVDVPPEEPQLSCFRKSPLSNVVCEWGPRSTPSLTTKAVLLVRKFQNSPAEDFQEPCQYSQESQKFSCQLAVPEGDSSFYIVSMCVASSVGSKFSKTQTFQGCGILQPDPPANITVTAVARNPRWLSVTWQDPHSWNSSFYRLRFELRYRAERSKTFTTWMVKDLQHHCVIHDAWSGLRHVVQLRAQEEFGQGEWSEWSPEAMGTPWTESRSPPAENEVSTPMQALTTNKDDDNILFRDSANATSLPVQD
In words: BLI, antibody on AHC biosensors.

In assay [6] the target is T5, epidermal growth factor receptor (EGFR), soluble, as used in BLI (UniProt P00533 25-645).
T5 construct: extracellular domain; also called EGFR-ECD
The experiment in a line: BLI.

The target of assay [7] is T6, programmed death-ligand 1 (PD-L1), soluble, as used in BLI (UniProt Q9NZQ7 19-238).
T6 construct: extracellular domain; also called PD-L1-ECD
The experiment in a line: BLI.

Assay [8] concerns the target PD-L1 on cells (A431; cells of the Promega PD-L1 blockade assay kit) (UniProt Q9NZQ7 19-290). In words: cell-based or functional assay.
In assay [9] the target is T1, EGFR and PD-L1 on EGFR/PD-L1 double …. In words: flow cytometry on EGFR/PD-L1 double-positive A431 cells, anti-human Fc PE detection.
Assay [10] concerns the target 273-621 (human, UniProt P00533). In words: flow cytometry on yeast cells displaying truncated EGFR fragments; detection with goat anti-human Fc PE.
For assay [11], the target named is 294-543 (human, UniProt P00533). Described as above.
Assay [12] concerns the target 475-621 (human, UniProt P00533). Described as above.
For assay [13], the target named is T5, epidermal growth factor receptor …. The experiment in a line: BLI. The source holds these as a separate data set.
Assay [14] has as its target T6, programmed death-ligand 1 (PD-L1), …. In words: BLI. This is another data set of the same source.
Assay [15] addresses T4, soluble IL-6R (sIL-6R-TS). The experiment in a line: BLI simultaneous binding; antibody on AHC biosensors; 200 nM IL-6R, then 500 nM EGFR, then 500 nM PD-L1, 300 s each.
Assay [16] deals with T7, CD3 (CD3ε) on cells (Jurkat; TCR/CD3 effector cells) (UniProt P07766 23-207, limits assumed).
T7 construct: whole, on cells; that number is the CD3ε entry; also called Jurkat (CD3+)
The experiment in a line: flow cytometry; Jurkat cells with antibody mixed with Calcein AM-stained A431 cells; anti-human Fc PE detection; Q3 = CD3-binding on Jurkats.

The target of assay [17] is T8, IL-6R on cells (THP-1, A549) (UniProt P08887 20-468, limits assumed).
T8 construct: whole, on cells; also called THP-1 (IL-6R+/PD-L1+)
T8 sequence (looked up): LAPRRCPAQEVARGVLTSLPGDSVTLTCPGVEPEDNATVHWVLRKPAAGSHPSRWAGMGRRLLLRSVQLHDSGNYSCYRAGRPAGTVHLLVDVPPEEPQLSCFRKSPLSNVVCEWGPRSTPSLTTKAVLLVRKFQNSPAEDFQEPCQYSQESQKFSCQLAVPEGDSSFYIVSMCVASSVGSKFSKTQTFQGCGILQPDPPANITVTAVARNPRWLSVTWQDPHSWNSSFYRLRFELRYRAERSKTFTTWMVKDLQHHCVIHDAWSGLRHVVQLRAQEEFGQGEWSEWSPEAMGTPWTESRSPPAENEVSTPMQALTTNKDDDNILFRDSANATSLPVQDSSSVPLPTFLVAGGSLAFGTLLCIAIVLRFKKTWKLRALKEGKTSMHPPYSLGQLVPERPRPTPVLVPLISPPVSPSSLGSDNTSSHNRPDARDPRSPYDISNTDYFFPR
The experiment in a line: flow cytometry on THP-1 cells; legend: - represents no significant binding.

T6 sequence (Q9NZQ7 19-238): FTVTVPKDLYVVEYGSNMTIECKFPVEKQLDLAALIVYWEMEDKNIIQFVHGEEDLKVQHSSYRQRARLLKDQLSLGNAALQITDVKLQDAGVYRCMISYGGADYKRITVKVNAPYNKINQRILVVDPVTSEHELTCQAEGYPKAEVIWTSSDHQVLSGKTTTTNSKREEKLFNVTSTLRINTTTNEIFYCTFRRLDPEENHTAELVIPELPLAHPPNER
T3 sequence (Q9NZQ7 other isoform, or with tags, fused parts or gaps): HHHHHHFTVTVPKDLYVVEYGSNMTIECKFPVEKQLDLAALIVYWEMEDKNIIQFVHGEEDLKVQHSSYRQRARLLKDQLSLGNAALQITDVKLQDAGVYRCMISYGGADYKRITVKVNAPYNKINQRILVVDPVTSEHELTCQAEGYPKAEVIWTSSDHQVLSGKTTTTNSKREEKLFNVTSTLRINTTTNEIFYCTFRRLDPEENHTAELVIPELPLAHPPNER
T7 sequence (P07766 23-207 limits assumed): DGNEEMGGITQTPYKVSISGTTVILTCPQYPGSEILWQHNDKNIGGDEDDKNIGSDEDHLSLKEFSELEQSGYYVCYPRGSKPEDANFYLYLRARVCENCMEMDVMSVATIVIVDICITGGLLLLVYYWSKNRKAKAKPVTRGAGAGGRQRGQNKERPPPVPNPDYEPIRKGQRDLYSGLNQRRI
Chain of PD-L1 on cells (A431; cells of the Promega PD-L1 blockade assay kit) (Q9NZQ7 19-290): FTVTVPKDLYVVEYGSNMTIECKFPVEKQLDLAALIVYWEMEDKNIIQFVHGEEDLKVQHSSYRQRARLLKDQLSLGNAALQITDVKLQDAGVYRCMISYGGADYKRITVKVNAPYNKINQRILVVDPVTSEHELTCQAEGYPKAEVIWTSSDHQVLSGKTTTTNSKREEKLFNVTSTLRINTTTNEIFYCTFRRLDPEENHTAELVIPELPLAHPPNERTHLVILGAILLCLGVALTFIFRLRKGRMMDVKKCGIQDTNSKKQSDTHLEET

B1: (αCD3ε)K(αIL-6R)+H(αIL-6R) TriTECM (bispecific antibody)
heavy 1: not shown
heavy 2: AVTLDESGGGLQTPGGALSLVCKASGFDFSSYDMAWVRQAPGKGLEWVAGIKSNGPWTNYGAAVKGRATISRDNGQSTVRLQLNNLRAEDTAIYYCAKPGAGYVGWDAAGTIDSWGHGTEVIVSSASTKGPSVFPLAPSSKSTSGGTAALGCLVKDYFPEPVTVSWNSGALTSGVHTFPAVLQSSGLYSLSSVVTVPSSSLGTQTYICNVNHKPSNTKVDKRVEPKSCDKTHTCPPCPAPEAAGGPSVFLFPPKPKDTLMISRTPEVTCVVVDVSHEDPEVKFNWYVDGVEVHNAKTKPREEQYNSTYRVVSVLTVLHQDWLNGKEYKCKVSNKALPAPIEKTISKAKGQPREPQVYTLPPSREEMTKNQVSLSCAVKGFYPSDIAVEWESNGQPENNYKTTPPVLDSDGSFFLVSKLTVDKSRWQQGNVFSCSVMHEALHNRFTQKSLSLSPGGSHHHHHHGGGGSGGGGSGGGGSSEVQLVESGGGLVQPGRSLRLSCAASRFTFDDYAMHWVRQAPGKGLEWVSGISWNSGRIGYADSVKGRFTISRDNAENSLFLQMNGLRAEDTALYYCAKGRDSFDIWGQGTMVTVSSAGGGGSGGGGSGGGGSSDIQMTQSPSSVSASVGDRVTITCRASQGISSWLAWYQQKPGKAPKLLIYGASSLESGVPSRFSGSGSGTDFTLTISSLQPEDFASYYCQQANSFPYTFGQGTKLEIKR
light: ALTQPSSVSANLGETVKITCSGGAYSDCGWYQQKSPGSAPVTVIYYNDKRPSDIPSRFSGSTFGSTATLTITGVQAEDEAVYYCGGYDSRTGYVGVFGAGTTLTVLGQPKANPTVTLFPPSSEELQANKATLVCLISDFYPGAVTVAWKADGSPVKAGVETTKPSKQSNNKYAASSYLSLTPEQWKSHRSYSCQVTHEGSTVEKTVAPTECS
notes: Fabs from HCP-LCE; effector-silenced IgG1 LALA; also called scFv(VH)-IgG1(H)-scFv2
Take B1: the “Q2 (FITC+/PE+) % of events” value in assay [1] was 16.5%. Further, the On-cell affinity in [2] was 12.3 nM. Moreover, the Kd stood at 271 nM in assay [3], 130 nM in [4] and 2.71 nM in [5].

B2: K(αCD3ε)+H(αIL-6R) TriTECM (bispecific antibody)
heavy 1: not shown
heavy 2: AVTLDESGGGLQTPGGALSLVCKASGFDFSSYDMAWVRQAPGKGLEWVAGIKSNGPWTNYGAAVKGRATISRDNGQSTVRLQLNNLRAEDTAIYYCAKPGAGYVGWDAAGTIDSWGHGTEVIVSSASTKGPSVFPLAPSSKSTSGGTAALGCLVKDYFPEPVTVSWNSGALTSGVHTFPAVLQSSGLYSLSSVVTVPSSSLGTQTYICNVNHKPSNTKVDKRVEPKSCDKTHTCPPCPAPEAAGGPSVFLFPPKPKDTLMISRTPEVTCVVVDVSHEDPEVKFNWYVDGVEVHNAKTKPREEQYNSTYRVVSVLTVLHQDWLNGKEYKCKVSNKALPAPIEKTISKAKGQPREPQVYTLPPSREEMTKNQVSLSCAVKGFYPSDIAVEWESNGQPENNYKTTPPVLDSDGSFFLVSKLTVDKSRWQQGNVFSCSVMHEALHNRFTQKSLSLSPGGSHHHHHHGGGGSGGGGSGGGGSSEVQLVESGGGLVQPGRSLRLSCAASRFTFDDYAMHWVRQAPGKGLEWVSGISWNSGRIGYADSVKGRFTISRDNAENSLFLQMNGLRAEDTALYYCAKGRDSFDIWGQGTMVTVSSAGGGGSGGGGSGGGGSSDIQMTQSPSSVSASVGDRVTITCRASQGISSWLAWYQQKPGKAPKLLIYGASSLESGVPSRFSGSGSGTDFTLTISSLQPEDFASYYCQQANSFPYTFGQGTKLEIKR
light: ALTQPSSVSANLGETVKITCSGGAYSDCGWYQQKSPGSAPVTVIYYNDKRPSDIPSRFSGSTFGSTATLTITGVQAEDEAVYYCGGYDSRTGYVGVFGAGTTLTVLGQPKANPTVTLFPPSSEELQANKATLVCLISDFYPGAVTVAWKADGSPVKAGVETTKPSKQSNNKYAASSYLSLTPEQWKSHRSYSCQVTHEGSTVEKTVAPTECS
notes: Fabs from HCP-LCE; effector-silenced IgG1 LALA; also called IgG1(H)-scFv2
As to B2, the “Q2 (FITC+/PE+) % of events” value in assay [1] was 12.2%. In assay [2], this molecule yielded an On-cell affinity of 21.2 nM. Moreover, the Kd amounted to 172 nM in assay [3] and 1.8 nM in assay [5].

B3: HCP-LCE (heavy chain PD-L1-light chain EGFR) Two-in-One antibody (bispecific antibody, human IgG1, lambda, L234A L235A, V domains shown)
VH: AVTLDESGGGLQTPGGALSLVCKASGFDFSSYDMAWVRQAPGKGLEWVAGIKSNGPWTNYGAAVKGRATISRDNGQSTVRLQLNNLRAEDTAIYYCAKPGAGYVGWDAAGTIDSWGHGTEVIVSS
VL: ALTQPSSVSANLGETVKITCSGGAYSDCGWYQQKSPGSAPVTVIYYNDKRPSDIPSRFSGSTFGSTATLTITGVQAEDEAVYYCGGYDSRTGYVGVFGAGTTLTVLG
notes: Symmetric full-length IgG; heavy chain is the ICI2 heavy chain, lambda CL; also called 2in1
B3: the Kd was found to be 236 nM in assay [6], 78.3 nM in assay [7], 236 nM in [13] and 78.3 nM in assay [14]. For the same molecule, in assay [8], the “EC50, cell-based PD-1/PD-L1 blockage assay (luciferase activity)” value was 214 nM. Moreover, the EC50 in assay [9] stood at 1.37 nM. For the same molecule, the binding result in assay [10], in assay [11] and in [12] was “no binding” each time. The figures for the koff in [13] and in assay [14] were 0.0981 s⁻¹ and 0.0762 s⁻¹, respectively. In addition, the kon worked out at 415000 M⁻¹ s⁻¹ in [13] and 973000 M⁻¹ s⁻¹ in assay [14].

B4: K+H (parental two-in-one antibody in Knob-into-Hole, effector-silenced LALA IgG1 format) (bispecific antibody, V domains shown)
VH: AVTLDESGGGLQTPGGALSLVCKASGFDFSSYDMAWVRQAPGKGLEWVAGIKSNGPWTNYGAAVKGRATISRDNGQSTVRLQLNNLRAEDTAIYYCAKPGAGYVGWDAAGTIDSWGHGTEVIVSS
VL: ALTQPSSVSANLGETVKITCSGGAYSDCGWYQQKSPGSAPVTVIYYNDKRPSDIPSRFSGSTFGSTATLTITGVQAEDEAVYYCGGYDSRTGYVGVFGAGTTLTVLG
notes: HCP-LCE Fabs on IgG1 LALA Knob-into-Hole Fc; also called parental K+H antibody
As for B4, the “Q2 (FITC+/PE+) % of events” value in [1] is 14%. The molecule also had an On-cell affinity in [2] of 2.5 nM. The binding result in assay [15] is listed as “no binding (tested: 200 nM)”; in assay [16], “no binding”; in assay [17], “no binding”. Also, the values for the Kd in assay [3] and in assay [4] were 173 nM and 92.9 nM, respectively.

B5: (αCD3ε)K+H (bispecific antibody)
heavy 1: not shown
heavy 2: AVTLDESGGGLQTPGGALSLVCKASGFDFSSYDMAWVRQAPGKGLEWVAGIKSNGPWTNYGAAVKGRATISRDNGQSTVRLQLNNLRAEDTAIYYCAKPGAGYVGWDAAGTIDSWGHGTEVIVSS
light: ALTQPSSVSANLGETVKITCSGGAYSDCGWYQQKSPGSAPVTVIYYNDKRPSDIPSRFSGSTFGSTATLTITGVQAEDEAVYYCGGYDSRTGYVGVFGAGTTLTVLGQPKANPTVTLFPPSSEELQANKATLVCLISDFYPGAVTVAWKADGSPVKAGVETTKPSKQSNNKYAASSYLSLTPEQWKSHRSYSCQVTHEGSTVEKTVAPTECS
notes: Control variant with anti-CD3ε scFv fused to the N-terminus of the VH of the knob chain; not shown: CH1 and Knob-Fc (IgG1 LALA) with Twin-StrepII tag; CH1 and Hole-Fc (IgG1 LALA) with His6 tag
For B5, in [1], the “Q2 (FITC+/PE+) % of events” value is 15%. In [2], this molecule yielded an On-cell affinity of 1.82 nM. Also, the binding result in [15] was “no binding (tested: 200 nM)”; in assay [17], “no binding”. Moreover, the Kd in assay [3] was found to be 236 nM; in [4] it was 108 nM.

(Values after US20250163161A1 (TECHNISCHE UNIVERSIT T DARMSTADT, published 2025).)
